Source: US20180044393A1 (INSERM INSTITUT NATIONAL DE LA SANT ET DE LA RECHERCHE M …, published 2018)
Positions of bridges follow the written chain, without caps; N, C: chain ends. No end group written: not given here. *: point of attachment. 125I = [125I]*

Tests used:
Test in all cases: 125I-OxA binding on CHO-S cells expressing the OX1R mutant
[1] = biological target: T1, OX1R P101A (human, UniProt O43613 1-425)
T1 construct: site-directed mutant (TM2) stably expressed in CHO-S cells; not shown: YFP from vector pEYFP-N2 fused at the C-terminus
T1 chain: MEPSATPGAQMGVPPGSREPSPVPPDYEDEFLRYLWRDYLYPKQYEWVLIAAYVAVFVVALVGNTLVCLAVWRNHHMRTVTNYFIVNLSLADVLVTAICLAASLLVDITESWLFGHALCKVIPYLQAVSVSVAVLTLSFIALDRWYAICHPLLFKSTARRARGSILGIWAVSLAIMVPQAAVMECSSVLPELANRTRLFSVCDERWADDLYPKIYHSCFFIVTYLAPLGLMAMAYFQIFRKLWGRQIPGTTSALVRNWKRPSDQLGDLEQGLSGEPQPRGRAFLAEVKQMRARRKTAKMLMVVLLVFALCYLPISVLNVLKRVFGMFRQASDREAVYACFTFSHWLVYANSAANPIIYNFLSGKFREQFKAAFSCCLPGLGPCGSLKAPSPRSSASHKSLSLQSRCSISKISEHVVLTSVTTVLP
Method: (§1) CHO—S cells expressing recombinant native or mutated OX1R were grown as previously described (El Firar et al., 2009) and maintained at 37° C. in a humidified 5% CO₂/air incubator. ¹²⁵I-orexia-A (74 TBq/mmol) was prepared as previously described (El Firar et al., 2009). […] Free peptides were removed by 2 cell washing cycles with PBS. […] Data were analyzed using the GraphPad software (http://www.graphpad.com).
(§2) All residues of OX1R fulfilling this condition were mutated to alanine by site-directed mutagenesis (Table II).

[2] = biological target: T2, OX1R Y211A (human, UniProt O43613 1-425)
T2 construct: site-directed mutant (TM5) stably expressed in CHO-S cells; not shown: YFP from vector pEYFP-N2 fused at the C-terminus
T2 chain: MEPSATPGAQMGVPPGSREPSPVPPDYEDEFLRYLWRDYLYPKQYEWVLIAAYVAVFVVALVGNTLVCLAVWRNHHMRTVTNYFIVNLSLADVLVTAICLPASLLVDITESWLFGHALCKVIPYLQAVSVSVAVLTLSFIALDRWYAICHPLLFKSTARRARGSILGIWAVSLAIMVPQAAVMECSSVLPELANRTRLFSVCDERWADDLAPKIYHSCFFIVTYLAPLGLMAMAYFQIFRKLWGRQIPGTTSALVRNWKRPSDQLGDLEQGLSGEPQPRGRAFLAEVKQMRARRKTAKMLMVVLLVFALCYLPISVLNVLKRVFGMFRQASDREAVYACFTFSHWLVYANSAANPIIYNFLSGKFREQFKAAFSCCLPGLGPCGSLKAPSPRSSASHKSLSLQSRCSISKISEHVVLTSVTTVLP
Method: as §1, §2

[3] = biological target: T3, OX1R K321A (human, UniProt O43613 1-425)
T3 construct: site-directed mutant (TM6) stably expressed in CHO-S cells; not shown: YFP from vector pEYFP-N2 fused at the C-terminus
T3 chain: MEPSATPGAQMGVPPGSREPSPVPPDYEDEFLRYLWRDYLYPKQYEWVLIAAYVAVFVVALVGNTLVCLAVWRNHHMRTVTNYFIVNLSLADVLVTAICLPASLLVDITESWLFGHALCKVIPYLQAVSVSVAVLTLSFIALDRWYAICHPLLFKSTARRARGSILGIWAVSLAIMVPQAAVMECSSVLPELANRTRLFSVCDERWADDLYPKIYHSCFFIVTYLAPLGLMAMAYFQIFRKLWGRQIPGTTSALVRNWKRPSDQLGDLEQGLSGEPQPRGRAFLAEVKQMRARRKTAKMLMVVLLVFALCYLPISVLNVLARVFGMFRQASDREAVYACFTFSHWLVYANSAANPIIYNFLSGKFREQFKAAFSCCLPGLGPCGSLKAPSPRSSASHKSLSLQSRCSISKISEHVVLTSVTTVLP
Method: as §1, §2

[4] = biological target: T4, OX1R T341A (human, UniProt O43613 1-425)
T4 construct: site-directed mutant (TM7) stably expressed in CHO-S cells; not shown: YFP from vector pEYFP-N2 fused at the C-terminus
T4 chain: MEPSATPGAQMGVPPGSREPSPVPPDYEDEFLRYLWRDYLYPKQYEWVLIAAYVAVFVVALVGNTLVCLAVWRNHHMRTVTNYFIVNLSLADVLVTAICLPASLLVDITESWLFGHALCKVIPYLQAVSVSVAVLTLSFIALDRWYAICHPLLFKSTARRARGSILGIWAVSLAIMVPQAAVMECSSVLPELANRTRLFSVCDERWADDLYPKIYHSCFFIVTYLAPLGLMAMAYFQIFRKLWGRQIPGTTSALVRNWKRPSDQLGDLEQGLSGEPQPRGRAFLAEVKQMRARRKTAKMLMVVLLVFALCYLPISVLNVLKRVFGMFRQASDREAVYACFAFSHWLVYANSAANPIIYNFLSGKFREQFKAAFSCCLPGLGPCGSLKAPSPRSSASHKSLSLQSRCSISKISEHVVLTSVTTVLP
Method: as §1, §2

Measured: binding result

QPLPDCCRQKTCSCRLY(125I)ELLHGAGNHAAGILTL (peptide, UniProt O43612 34-66, looked up, disulfide 6-12, 7-14; not fully specified (residue 1, C-terminus), mature; also called OxA) [125I-orexin-A]
binds: all assays above
